Values of other authors as cited in publication PMC8608346.

Target: FPR1 (Homo sapiens) (UniProt P21462)
Chain of UniProt P21462 (P21462 whole entry): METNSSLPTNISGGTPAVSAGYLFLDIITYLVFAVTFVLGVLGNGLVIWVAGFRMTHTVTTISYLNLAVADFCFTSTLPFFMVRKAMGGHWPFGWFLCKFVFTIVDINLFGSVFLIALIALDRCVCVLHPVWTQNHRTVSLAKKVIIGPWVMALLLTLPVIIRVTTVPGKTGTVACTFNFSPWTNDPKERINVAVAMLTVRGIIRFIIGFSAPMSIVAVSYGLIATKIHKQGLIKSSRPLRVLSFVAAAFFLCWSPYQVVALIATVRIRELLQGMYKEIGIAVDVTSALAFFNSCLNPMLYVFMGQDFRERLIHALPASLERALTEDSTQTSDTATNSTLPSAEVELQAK

## FAM19A4 (from UniProt Q96LR4)
  Kd: 0.447 nM
